Test results as given in patent US20230340151A1 (Pfizer, published 2023).

Experiments:
Test in all cases: flow cytometry on cells displaying the construct
[1] = target: CID1947 (human GUCY2c point mutant) (human)
Excerpt: (§1) Cells were then washed three times with PBS+0.5% BSA buffer. […] Cells were washed three times with PBS+0.5% BSA buffer and then analyzed on a flow cytometer.
(§2) MFI (median fluorescence intensity) of anti-GUCY2c antibody binding to the cells was normalized to expression on cell surface measured by MFI of anti-tag antibodies. All the cells expressed V5 and HA on the cell surface for expression normalization.

[2] = target: T1, CID1875 (human-chicken GUCY2c chimera) (human/chicken)
T1 chain: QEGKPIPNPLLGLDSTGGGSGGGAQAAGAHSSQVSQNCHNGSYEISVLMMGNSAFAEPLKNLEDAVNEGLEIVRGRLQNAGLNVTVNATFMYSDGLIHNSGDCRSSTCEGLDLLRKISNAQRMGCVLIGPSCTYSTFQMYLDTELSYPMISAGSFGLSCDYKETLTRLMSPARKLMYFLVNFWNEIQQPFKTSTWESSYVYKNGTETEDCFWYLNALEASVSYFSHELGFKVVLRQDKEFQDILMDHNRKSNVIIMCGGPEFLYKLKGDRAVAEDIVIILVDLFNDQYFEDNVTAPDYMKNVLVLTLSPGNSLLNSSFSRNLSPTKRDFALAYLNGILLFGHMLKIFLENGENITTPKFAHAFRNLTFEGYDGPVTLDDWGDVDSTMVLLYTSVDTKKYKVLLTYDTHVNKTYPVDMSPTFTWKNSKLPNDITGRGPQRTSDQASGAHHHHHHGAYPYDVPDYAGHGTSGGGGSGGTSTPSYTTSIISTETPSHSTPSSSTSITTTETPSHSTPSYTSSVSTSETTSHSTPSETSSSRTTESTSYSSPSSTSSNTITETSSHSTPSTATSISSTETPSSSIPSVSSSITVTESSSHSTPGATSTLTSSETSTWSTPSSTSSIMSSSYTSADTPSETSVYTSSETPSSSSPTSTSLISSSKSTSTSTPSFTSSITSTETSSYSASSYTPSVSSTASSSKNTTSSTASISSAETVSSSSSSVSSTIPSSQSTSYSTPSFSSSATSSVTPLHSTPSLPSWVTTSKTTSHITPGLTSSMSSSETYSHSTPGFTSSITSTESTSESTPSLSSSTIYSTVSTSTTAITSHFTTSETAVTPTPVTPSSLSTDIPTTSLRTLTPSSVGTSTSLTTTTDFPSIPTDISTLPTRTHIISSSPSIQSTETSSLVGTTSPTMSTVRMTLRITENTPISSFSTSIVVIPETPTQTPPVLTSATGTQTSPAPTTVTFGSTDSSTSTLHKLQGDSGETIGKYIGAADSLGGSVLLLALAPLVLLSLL
Excerpt: as §1, §2

[3] = target: T2, CID1878 (human-chicken GUCY2c chimera) (human/chicken)
T2 chain: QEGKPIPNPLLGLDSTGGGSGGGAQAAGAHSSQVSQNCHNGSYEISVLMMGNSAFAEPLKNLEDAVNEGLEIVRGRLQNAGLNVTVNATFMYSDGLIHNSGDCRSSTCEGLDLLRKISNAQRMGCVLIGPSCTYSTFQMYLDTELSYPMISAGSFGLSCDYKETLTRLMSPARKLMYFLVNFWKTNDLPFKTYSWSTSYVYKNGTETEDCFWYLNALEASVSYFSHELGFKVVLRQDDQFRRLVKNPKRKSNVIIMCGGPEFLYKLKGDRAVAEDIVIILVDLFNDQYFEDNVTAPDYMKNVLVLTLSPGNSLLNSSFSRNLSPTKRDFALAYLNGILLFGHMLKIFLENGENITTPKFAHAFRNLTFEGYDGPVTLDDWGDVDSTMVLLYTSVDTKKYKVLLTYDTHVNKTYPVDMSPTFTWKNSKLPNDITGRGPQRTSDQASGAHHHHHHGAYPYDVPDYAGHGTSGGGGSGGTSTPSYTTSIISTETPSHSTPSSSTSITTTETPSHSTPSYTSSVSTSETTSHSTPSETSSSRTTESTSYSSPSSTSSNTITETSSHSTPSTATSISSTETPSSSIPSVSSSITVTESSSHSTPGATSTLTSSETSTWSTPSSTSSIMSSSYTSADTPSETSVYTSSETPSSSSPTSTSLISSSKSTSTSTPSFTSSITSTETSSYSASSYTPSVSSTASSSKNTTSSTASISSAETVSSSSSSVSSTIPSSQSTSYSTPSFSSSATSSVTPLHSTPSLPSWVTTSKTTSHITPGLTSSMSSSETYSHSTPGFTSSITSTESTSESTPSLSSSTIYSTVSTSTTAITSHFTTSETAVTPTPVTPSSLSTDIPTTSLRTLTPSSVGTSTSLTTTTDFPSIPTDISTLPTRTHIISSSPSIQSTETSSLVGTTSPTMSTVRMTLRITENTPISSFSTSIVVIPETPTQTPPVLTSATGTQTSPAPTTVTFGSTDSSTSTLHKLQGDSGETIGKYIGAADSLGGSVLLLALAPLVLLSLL
Excerpt: as §1, §2

[4] = target: CID1949 (human GUCY2c point mutant) (human)
Excerpt: as §1, §2

Measured: binding result

B1: GUCY2C-1608 (bispecific antibody)
chain 1: DIQLTQSPSSLSASVGDRVTITCRASESVDYYGSSLLQWYQQKPGKAPKLLIYAASKLASGVPSRFSGSGSGTDFTLTISSLQPEDFATYYCQQTRKAYTFGQGTKLEIKGGGSGGGGEVQLVESGGGLVQPGGSLRLSCAASGFTFSDYYMTWVRQAPGKGLEWVAFIRNQARGYTSDHNPSVKGRFTISRDNAKNSLYLQMNSLRAEDTAVYYCARDRPSYYVLDYWGQGTTVTVSSGCPPCPAPEAAGAPSVFLFPPKPKDTLMISRTPEVTCVVVDVSHEDPEVKFNWYVDGVEVHNAKTKPREEQYNSTYRVVSVLTVLHQDWLNGKEYKCKVSNKALPAPIEKTISKAKGQPREPQVCTLPPSREEMTKNQVSLWCLVKGFYPSDIAVEWESNGQPENNYKTTPPVLDSDGSFFLYSKLTVDKSRWQQGNVFSCSVMHEALHNHYTQKSLSLSPG
chain 2: DIQMTQSPSSLSASVGDRVTITCTSSQSLFNVRSQKNYLAWYQQKPGKAPKLLIYWASTRESGVPSRFSGSGSGTDFTLTISSLQPEDFATYYCKQSYDLFTFGGGTKVEIKGGGGSGGGGEVQLVESGGGLVQPGGSLRLSCAASGFTFSSYWMHWVRQAPGKGLEWIGEIKPSNELTNVHEKFKDRFTISVDKAKNSAYLQMNSLRAEDTAVYYCTRTITTTEGYWFFDVWGQGTLVTVSSGCPPCPAPEAAGAPSVFLFPPKPKDTLMISRTPEVTCVVVDVSHEDPEVKFNWYVDGVEVHNAKTKPREEQYNSTYRVVSVLTVLHQDWLNGKEYKCKVSNKALPAPIEKTISKAKGQPREPQVYTLPPCREEMTKNQVSLSCAVKGFYPSDIAVEWESNGQPENNYKTTPPVLDSDGSFFLVSKLTVDKSRWQQGNVFSCSVMHEALHNHYTQKSLSLSPG
notes: also called GUCY2c CD3 bispecific
binds: [1] | [2] | [3] | [4]
